According to paper PMC9233744:
No end group written: not given here.

Tests used:
[1] = target: Rgg144 (recombinant, Streptococcus pneumoniae D39, SPD_0144) (Streptococcus pneumoniae D39); assay: SEC
[2] = target: Rgg144 (recombinant, Streptococcus pneumoniae D39, SPD_0144) (Streptococcus pneumoniae D39); assay: fluorescence polarisation

## Rgg144 (recombinant, Streptococcus pneumoniae D39, SPD_0144) (natural protein)
[1]
  stoichiometry N: 2

## SEWVIVIPFLTNL [unlabeled SHP144 (13-residue synthetic peptide, wild type)]
[2]
  IC50: 86.8 µM

## AEWVIVIPFLTNL (also: FITC label, position not given here) [FITC-labeled SHP144 S14A]
[2]
  Kd: 8.1 µM

## SEWAIVIPFLTNL (also: FITC label, position not given here) [FITC-labeled SHP144 V17A]
[2]
  Kd: 9.7 µM

## SEWVIVIPFATNL (also: FITC label, position not given here) [FITC-labeled SHP144 L23A]
[2]
  Kd: 4.3 µM

## SEWVIVAPFLTNL (also: FITC label, position not given here) [FITC-labeled SHP144 I20A]
[2]
  Kd: 23.5 µM

## SEWVAVIPFLTNL (also: FITC label, position not given here) [FITC-labeled SHP144 I18A]
[2]
  Kd: > 100 µM

## SEWVIVIPALTNL (also: FITC label, position not given here) [FITC-labeled SHP144 F22A]
[2]
  Kd: 7.1 µM

## SEWVIVIPFLTNL (also: FITC label, position not given here) [FITC-labeled SHP144 (SHP144-C13), wild type]
[2]
  Kd: 6.6 µM

## SEAVIVIPFLTNL (also: FITC label, position not given here) [FITC-labeled SHP144 W16A]
[2]
  Kd: 50 µM

## SEWVIVIPFLTAL (also: FITC label, position not given here) [FITC-labeled SHP144 N25A]
[2]
  Kd: 3.3 µM

## SEWVIAIPFLTNL (also: FITC label, position not given here) [FITC-labeled SHP144 V19A]
[2]
  Kd: 4 µM

## SEWVIVIPFLTNA (also: FITC label, position not given here) [FITC-labeled SHP144 L26A]
[2]
  Kd: 3.4 µM

## SEWVIVIAFLTNL (also: FITC label, position not given here) [FITC-labeled SHP144 P21A]
[2]
  Kd: 1.7 µM

## SAWVIVIPFLTNL (also: FITC label, position not given here) [FITC-labeled SHP144 E15A]
[2]
  Kd: 3.3 µM

## SEWVIVIPFLANL (also: FITC label, position not given here) [FITC-labeled SHP144 T24A]
[2]
  Kd: 3.3 µM
